Assays:
Test in all cases: SPR
5054 Fz4 B5 = biological target: 5054 Fz4 B5
5048 Fz4 A11 = biological target: 5048 Fz4 A11
5045 Fz4 A8 = biological target: 5045 Fz4 A8
5039 Fz4 A2 = biological target: 5039 Fz4 A2
5067 Fz4 C6 = biological target: 5067 Fz4 C6
5075 Fz4 D2 = biological target: 5075 Fz4 D2
5056 Fz4 B7 = biological target: 5056 Fz4 B7
5073 Fz4 C12 = biological target: 5073 Fz4 C12
5074 Fz4 D1 = biological target: 5074 Fz4 D1
5057 Fz4 B8 = biological target: 5057 Fz4 B8

B1: FZD4 (Fc fusion)
chain: FGDEEERRCDPIRISMCQNLGYNVTKMPNLVGHELQTDAELQLTTFTPLIQYGCSSQLQFFLCSVYVPMCTEKINIPIGPCGGMCLSVKRRCEPVLKEFGFAWPESLNCSKFPPQNDHNHMCMEGPGDEEVPLPHKTPIQPGEE
Kd (5054 Fz4 B5): 2.16 nM | Kd (5048 Fz4 A11): 3.71 nM | Kd (5045 Fz4 A8): 1.3 nM | Kd (5039 Fz4 A2): 2.57 nM | Kd (5067 Fz4 C6): 1.63 nM | Kd (5075 Fz4 D2): 1.19 nM | Kd (5056 Fz4 B7): 1.14 nM | Kd (5073 Fz4 C12): 0.422 nM | Kd (5074 Fz4 D1): 3.61 nM | Kd (5057 Fz4 B8): 2.56 nM

Source: patent publication US20220356256A1 (published 2022)
